Measured values: patent US20110311550A1 (Scripps Research, published 2011)

B1: MAb AR1A (antibody, V domains shown)
VH: LEQSGAEVKKPGSSVKVSCRASGSPYSSYTITWVRQAPGQGLEWMGGIILMTGKANYAQKFQGRVTITADRATATAYMEMSSLTSDDTAIYYCARDPYVYAGDDVRSLSRWGQGTPVIVSS
VL: not shown
notes: also called IgG1 of Fab B2
B2: MAb AR1B (antibody, V domains shown)
VH: LESGGGLVQPGGSLRLSCEASGYYFSSFAMSWVRQTPGKGLEWVSSIAGGTLGRTSYRDSVKGRFTISRDNSKNTVFLHMNNLRPEDTAVYYCAKDPLLFAGGPNWFDHWGQGTLVTVSS
VL: not shown
notes: also called IgG1 of Fab D1
B3: MAb AR2A (antibody, V domains shown)
VH: LEQSGAEMKKPGASLKVSCKTSGYTFDDYGVTWVRQAPGQGLEWMGWISAYSGNTFYARKFQGRVTMTTDPSTRTAYMELRSLRSDDTAVYFCARDRGLAINGVVFPYFGLDVWGQGTTVTVSS
VL: ELTQSPVSLPVTPGEPASISCRSSQSLLHSNGNHYLDWYLQKPGQSPQLLMYLGSNRASGVPDRFSGSGSGTDFTLKISRVEAEDVGVYYCMQGLQTPWTFGQGTKVEIKR
notes: also called IgG1 of Fab G
B4: MAb AR3C (antibody, V domains shown)
VH: LEQSGAEVKKPGSSVKVSCETSGGTLDNYALNWVRQAPGQGLEWIGGVVPLFGTTRNAQKFQGRVTISDDKSTGTGHMELRSLRSEDTAVYYCVRSVTPRYCGGGFCYGEFDYWGQGTLVTVSS
VL: ELTQSPATLSVSPGERATLSCRASQSVSSNLAWYQQKPGQAPRLLIYGASTRATGIPARFSGSGSGTEFTLTVSRLEPEDSAVYFCQQYYRSPLTFGGGTKVEIKR
notes: also called IgG1 of Fab H3
B5: MAb AR3D (antibody, V domains shown)
VH: LEQSGAEVKKPGSSVKVSCKASGDTFRSYVITWARQAPGQGLEWMGAIIPFFGTTNLAQKFQGRVTITADESTKTVYMDLSSLRSDDTAVYYCAKAGDLSVGGVLAGGVPHLRHFDPWGQGTLVTVSS
VL: ELTQSPGTLSLSPGERATLSCRAGQTVASNSLAWYQHKPGQAPRLLIYGASIRASGIPDRFSGSGSGTDFTLTISRLEPEDFAVYYCQQYGLSSTFGQGTRLEIKR
notes: also called IgG1 of Fab L4
B6: N4 IgG (antibody, V domains shown)
VH: VQLLEQSGPEVKKPGDSLRISCKMSGDSLVTTWIGWVRQKPGQGLEWMGIINPGDSSTNIYPGDSATRYGPSFQGQVTISIDKSTSTAYLQWNNVKASDTGIYYCARHVPVPISGTFLWREREMHDFGYFDDWGQGTLVIVSS
VL: ELTLTQSPGTLSLSPGERATLSCRASQSVSNNYLAWYQQKPGQAPRLLIYGASSRATGIPDRFSGSGSGTGFTLIISRLEPEDFAVYYCQQYGSSSITFGQGTRLEIKR
notes: also called IgG N4

Assays:
[1] = biological target: T1, E1E2 complex of HCV isolate H77 (genotype 1a), wild type (HCV isolate H77, UniProt P27958 192-383; P27958 384-746); test: competition ELISA on H77 E1E2; competitor m41 (Fab O1)
[2] = biological target: T2, vaccinia-expressed E1E2 complex, isolate HCV-1 (genotype 1a) (hepatitis C virus, isolate HCV-1, UniProt P26664 192-383; P26664 384-746); test: competition ELISA on HCV-1 E1E2; competitor m22 (CBH-7)
[3] = biological target: T2, vaccinia-expressed E1E2 complex, …; test: competition ELISA on HCV-1 E1E2; competitor m30 (7/16B)
[4] = biological target: T2, vaccinia-expressed E1E2 complex, …; test: competition ELISA on HCV-1 E1E2; competitor m25 (9/27)
[5] = biological target: T2, vaccinia-expressed E1E2 complex, …; test: competition ELISA on HCV-1 E1E2; competitor m32 (AP320)
[6] = biological target: T1, E1E2 complex of HCV isolate H77 …; test: competition ELISA on H77 E1E2; competitor m44 (Fab P2)
[7] = biological target: T2, vaccinia-expressed E1E2 complex, …; test: competition ELISA on HCV-1 E1E2; competitor m27 (3/11)
[8] = biological target: E1E2 complex (H77) with E1 mutation I212A (HCV genotype 1a, isolate H77, UniProt P27958 192-383; P27958 384-746); test: ELISA, lectin-captured E1E2 lysate, Ab 1 ug/ml;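 further: E1E2 captured on Galanthus nivalis lectin-coated plates, bound test antibody read out by an HRP-linked secondary antibody and TMB colour development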
[9] = biological target: E1E2 complex (H77) with E1 mutation S236A (HCV genotype 1a, isolate H77, UniProt P27958 192-383; P27958 384-746); test: ELISA, lectin-captured E1E2 lysate, Ab 1 ug/ml;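 further: E1E2 captured on Galanthus nivalis lectin-coated plates, bound test antibody read out by an HRP-linked secondary antibody and TMB colour development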
[10] = biological target: E1E2 complex (H77) with E1 mutation G311A (HCV genotype 1a, isolate H77, UniProt P27958 192-383; P27958 384-746); test: ELISA, lectin-captured E1E2 lysate, Ab 1 ug/ml;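 further: E1E2 captured on Galanthus nivalis lectin-coated plates, bound test antibody read out by an HRP-linked secondary antibody and TMB colour development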
[11] = biological target: E1E2 complex (H77) with E1 mutation S211A (HCV genotype 1a, isolate H77, UniProt P27958 192-383; P27958 384-746); test: ELISA, lectin-captured E1E2 lysate, Ab 1 ug/ml;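 further: E1E2 captured on Galanthus nivalis lectin-coated plates, bound test antibody read out by an HRP-linked secondary antibody and TMB colour development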
[12] = biological target: E1E2 complex (H77) with E1 mutation S307A (HCV genotype 1a, isolate H77, UniProt P27958 192-383; P27958 384-746); test: ELISA, lectin-captured E1E2 lysate, Ab 1 ug/ml
[13] = biological target: E1E2 complex (H77) with E1 mutation L258A (HCV genotype 1a, isolate H77, UniProt P27958 192-383; P27958 384-746); test: ELISA, lectin-captured E1E2 lysate, Ab 1 ug/ml
[14] = biological target: E1E2 complex (H77) with E1 mutation P295A (HCV genotype 1a, isolate H77, UniProt P27958 192-383; P27958 384-746); test: ELISA, lectin-captured E1E2 lysate, Ab 1 ug/ml
[15] = biological target: E1E2 complex (H77) with E1 mutation T314A (HCV genotype 1a, isolate H77, UniProt P27958 192-383; P27958 384-746); test: ELISA, lectin-captured E1E2 lysate, Ab 1 ug/ml
[16] = biological target: E1E2 complex (H77) with E1 mutation V266A (HCV genotype 1a, isolate H77, UniProt P27958 192-383; P27958 384-746); test: ELISA, lectin-captured E1E2 lysate, Ab 1 ug/ml
[17] = biological target: E1E2 complex (H77) with E1 mutation D321A (HCV genotype 1a, isolate H77, UniProt P27958 192-383; P27958 384-746); test: ELISA, lectin-captured E1E2 lysate, Ab 1 ug/ml
[18] = biological target: E1E2 complex (H77) with E1 mutation P224A (HCV genotype 1a, isolate H77, UniProt P27958 192-383; P27958 384-746); test: ELISA, lectin-captured E1E2 lysate, Ab 1 ug/ml
[19] = biological target: E1E2 complex (H77) with E1 mutation W326A (HCV genotype 1a, isolate H77, UniProt P27958 192-383; P27958 384-746); test: ELISA, lectin-captured E1E2 lysate, Ab 1 ug/ml
[20] = biological target: E1E2 complex (H77) with E1 mutation Q302A (HCV genotype 1a, isolate H77, UniProt P27958 192-383; P27958 384-746); test: ELISA, lectin-captured E1E2 lysate, Ab 1 ug/ml
[21] = biological target: E1E2 complex (H77) with E1 mutation R339A (HCV genotype 1a, isolate H77, UniProt P27958 192-383; P27958 384-746); test: ELISA, lectin-captured E1E2 lysate, Ab 1 ug/ml
[22] = biological target: E1E2 complex (H77) with E1 mutation L221A (HCV genotype 1a, isolate H77, UniProt P27958 192-383; P27958 384-746); test: ELISA, lectin-captured E1E2 lysate, Ab 1 ug/ml

Binder | % residual binding [1] | % residual binding [2] | % residual binding [3] | % residual binding [4] | % residual binding [5] | % residual binding [6] | % residual binding [7] | also measured
B1 | 76% | 16% | 86% | 74% | 84% | 91% | 66% | –
B2 | 95% | 20% | 91% | 70% | 83% | 99% | 61% | –
B3 | 88% | 17% | 95% | 67% | 70% | 82% | 94% | –
B4 | 77% | 39% | 99% | 62% | 81% | 140% | 44% | –
B5 | 83% | 33% | 94% | 49% | 77% | 138% | 37% | –
B6 | – | – | – | – | – | – | – | Binding relative to wt (%) [8]: 51%; Binding relative to wt (%) [9]: 81%; Binding relative to wt (%) [10]: 87%; Binding relative to wt (%) [11]: 93%; Binding relative to wt (%) [12]: 58%; Binding relative to wt (%) [13]: 89%; Binding relative to wt (%) [14]: 82%; Binding relative to wt (%) [15]: 83%; Binding relative to wt (%) [16]: 92%; Binding relative to wt (%) [17]: 92%; Binding relative to wt (%) [18]: 104%; Binding relative to wt (%) [19]: 125%; Binding relative to wt (%) [20]: 6%; Binding relative to wt (%) [21]: 119%; Binding relative to wt (%) [22]: 100%
